Tests used:
Assay in all cases: ammonia release, indophenol blue, OD640; Michaelis-Menten fit
Conditions in all cases: 50 mM MES-NaOH pH 7.0, 1 mM DTT, 40 °C, 30 min, 10 nM enzyme
[1] = substrate: NCCCCNC(N)=O; assay type: biochemical, Microterricola gilva
Excerpt: ammonia release, indophenol blue, OD640; Michaelis-Menten fit on Microterricola gilva AguY (MgAguY)

[2] = substrate: NCCCCNC(N)=O; assay type: biochemical, Shewanella oneidensis
Excerpt: ammonia release, indophenol blue, OD640; Michaelis-Menten fit on Shewanella oneidensis AguY (SoAguY)

[3] = substrate: NCCCCNC(N)=O; assay type: biochemical, Pseudomonas aeruginosa
Excerpt: ammonia release, indophenol blue, OD640; Michaelis-Menten fit on P. aeruginosa NCPAH/AguB (PaAguB)

B1: Microterricola gilva AguY (MgAguY) (Microterricola gilva) (protein)
chain: MTSPTVGKGGIVEAGIDELAAALAAGETSAVALLDAYLARIRAFDAPGTATALNAYVVMNPDARADAEASDARRARGESRGPLDGIPYSAKDSYLAAGLTAAAGSPAFTALIAQQDAFTIERLRTAGAVLIGLTNMPPMANGGMQRGAYGRAESPYNAAWLTAAFGSGSSNGSGTATAASMCAFGLGEETWSSGRAPASNNALCAYTPSRGIISMRGNWPLVPTMDVVVPHTRTMADLLRVLDVIVAEDGDTRGDFWRSQPWLEIPRVDEHRPASYPSLAPTDLAAAQATLRGTRLGVPRMYINGDQDAGTGEPGGIGGPTGQRIETRASVIELWEAARRDLEAAGATVVEVDFPLVSNYEGDRAGAPTITNRGLVSPEFLHTELNDLAAWAWNDFLEMNGDPRLSSLAAVDGERIFPAPPGSLPDRYQGFDDDIADLPRIAAERHWASVEEIEELADGIRGLEHTRAIDFDAWMASNRLDAVVFPAVADVGPADMDVNEASADAGWRNGVWVANGNLVIRHFGIPTVTVPMGLMRDIRMPVGLTFAGLPYDDVALLRLAAAFERTAERRVAPPLSAPPARAHR
notes: full length, 584 aa, 61,738 Da; purified recombinant, codon-optimised synthetic gene, expressed in E. coli; genome has a second AguY paralog
B1 was tested, and the Km [1] was 0.07 ± 0.3 mM, the kcat [1] was 39 ± 1.5 s⁻¹ and the kcat/Km [1] was 642000 ± 251000 M⁻¹ s⁻¹.

B2: Shewanella oneidensis AguY (SoAguY) (Shewanella oneidensis MR-1) (protein)
chain: MFEVTEVSIAELRAALESGRTTVVELVKSYLARVAAYDGPATETKLNALVVHNPDALKEAEASDARRARGETLSPLDGIPYTAKDSYLVKGLTAASGSPAFKDLVAQYDAFAVERLRAAGAICLGKTNMPPMANGGMQRGHYGRAESPYNAEYLTAPFASGSSNGAGTGTAASYSAFGLAEETWSSGRGPASNNGLCAYTPSRGVISVRGNWPLTPTMDVVVPYTRTMADMLEVLDVIVADDPITRGDLWRLQPWVQIPKASTVRPESYLALAASADTLKGKRFGVPRMYINKDELAGTSENPGIGGPTGQRIHTRQSVIDLWEAARKALEAAGAEVIEVDFPLVSNCEGDRPGAPTVFNRGIVTPQFLHDELWELSGWAFDEFLRANNDPKLNKLEDVVGHLIFPHDLCTLPNREGDLAAGMEEYVNMAKRGLKSFDQIDSIPDGLRGLEKTRKLDLEDWMDGLKLDAVLFPTVADVGPADAHVNPASADIAWSNGVWVANGNLAIRHLGVPTVTVPMGVMADIGMPVGLTFAGRAYDDNNLLKFAGAFESTGNRRIIPPRTPKLGQ
notes: full length, 568 aa, 60,996 Da; purified recombinant, codon-optimised synthetic gene, expressed in E. coli
Protein B2 has a Km [2] of 0.74 ± 0.13 mM, a kcat [2] of 130 ± 4.5 s⁻¹ and a kcat/Km [2] of 179000 ± 28600 M⁻¹ s⁻¹.

B3: P. aeruginosa NCPAH/AguB (PaAguB) (Pseudomonas aeruginosa PAO1) (protein)
chain: MTRNVTVAATQMACSWDRPANIARAEKLVRQAAARGAQIILIQELFETPYFCQKPNPDYLQLATTVEENAAIAHFQALARELQVVLPISFFERAGRARFNSIAVIDADGGNLGVYRKSHIPDGPGYHEKYYFNPGDTGFKVWQTRYARIGVGICWDQWFPESARSMALLGAELLFYPTAIGSEPHDASISSRDHWQRVQQGHAGANLMPLVASNRIGREEQDGYDITFYGSSFIADPFGEKVEELNRTEEGILVHTFDLDALERTRSAWGVFRDRRPNLYGPLKTLDGSLES
notes: full length, 292 aa, 32,780 Da; purified recombinant, codon-optimised synthetic gene, expressed in E. coli
Work on B3 yielded a Km [3] of 0.66 ± 0.11 mM, a kcat [3] of 54.1 ± 3 s⁻¹ and a kcat/Km [3] of 82500 ± 8800 M⁻¹ s⁻¹.
